One data set has as its target T1, BbCmr1 (Beauveria bassiana, UniProt J4VZG7 1-764).
T1 sequence: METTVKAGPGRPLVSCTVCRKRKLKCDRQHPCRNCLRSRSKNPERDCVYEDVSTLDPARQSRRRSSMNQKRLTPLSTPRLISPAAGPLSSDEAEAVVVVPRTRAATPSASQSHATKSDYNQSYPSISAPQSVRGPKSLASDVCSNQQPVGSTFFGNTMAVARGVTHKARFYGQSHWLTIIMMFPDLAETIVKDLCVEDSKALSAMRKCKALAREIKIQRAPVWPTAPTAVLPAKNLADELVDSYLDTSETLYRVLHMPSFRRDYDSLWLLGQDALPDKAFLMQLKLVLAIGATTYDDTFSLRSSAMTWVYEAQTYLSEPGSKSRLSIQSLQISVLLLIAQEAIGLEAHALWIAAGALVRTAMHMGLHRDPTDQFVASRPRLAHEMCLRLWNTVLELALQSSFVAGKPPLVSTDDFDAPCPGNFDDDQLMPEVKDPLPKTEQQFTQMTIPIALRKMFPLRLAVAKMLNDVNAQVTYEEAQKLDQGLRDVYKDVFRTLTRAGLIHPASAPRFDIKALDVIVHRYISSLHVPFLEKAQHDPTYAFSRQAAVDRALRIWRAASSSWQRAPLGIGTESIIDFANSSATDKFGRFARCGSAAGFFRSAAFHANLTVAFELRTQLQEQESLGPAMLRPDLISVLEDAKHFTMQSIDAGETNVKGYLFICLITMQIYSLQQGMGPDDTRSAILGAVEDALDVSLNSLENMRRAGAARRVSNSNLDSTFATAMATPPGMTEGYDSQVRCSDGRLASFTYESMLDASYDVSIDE
Put plainly: EMSA; 0.5-2 ug protein, 10 ng probe; concentration-dependent; complex decreased by 200-800-fold unlabeled probe; LightShift Chemiluminescent EMSA kit, manufacturer's instructions; buffer, salt, pH and temperature not given. To be noted: protein: recombinant; tags: N-terminal GST (pGEX-6p); chain copies: 2; label: biotin; blunt.

The target in a further data set is T2, BbBrlA (Beauveria bassiana, UniProt J5JC27 1-370).
T2 sequence: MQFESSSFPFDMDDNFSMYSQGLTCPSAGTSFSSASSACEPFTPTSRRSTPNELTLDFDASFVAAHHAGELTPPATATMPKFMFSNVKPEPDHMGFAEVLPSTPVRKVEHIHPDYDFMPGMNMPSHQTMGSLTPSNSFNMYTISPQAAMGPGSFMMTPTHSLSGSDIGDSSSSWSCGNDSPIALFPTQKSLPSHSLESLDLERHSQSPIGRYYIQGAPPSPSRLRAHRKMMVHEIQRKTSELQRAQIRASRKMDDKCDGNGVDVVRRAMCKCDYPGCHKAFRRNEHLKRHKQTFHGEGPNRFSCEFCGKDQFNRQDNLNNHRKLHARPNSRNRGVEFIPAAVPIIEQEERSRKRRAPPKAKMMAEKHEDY
The data set is described as follows: EMSA; shift lost with 200-fold unlabeled probe; LightShift Chemiluminescent EMSA kit, manufacturer's instructions; buffer, salt, pH and temperature not given. To be noted: protein: recombinant; tags: GST; label: biotin; blunt. A general note: In EMSA bound probe runs differently from free probe, usually more slowly.

We go through two molecules from article PMC8826823, “The Zinc Finger Transcription Factor BbCmr1 Regulates Conidium Maturation in Beauveria bassiana”.

B1: BbbrlA promoter probe (brlA-EMSA) (dsDNA)
DNA 1: GGAAAAAAAAAAAAGAAAAGGAACCCACAACTCAAGTCT
DNA 2: AGACTTGAGTTGTGGGTTCCTTTTCTTTTTTTTTTTTCC
For B1, in the data set with BbCmr1, the binding result is on record as “binds”.

B2: Bbcmr1 promoter probe (cmr1-EMSA) (dsDNA)
DNA 1: CGGAATTACGATATTACCCCTAGAGACAATTTTTATTATA
DNA 2: TATAATAAAAATTGTCTCTAGGGGTAATATCGTAATTCCG
For B2, the binding result in the data set with BbBrlA is on record as “binds”.
